This test deals with young fibroblasts (MMP1 and collagen expression). Put plainly: Addition of senescence factor proteins to young fibroblasts: MMP1 and collagen gene expression by RT-PCR. The note with it: protein added at 10 μg/ml vs 0 μg/ml, 2 days; for MMP1 expression: FIG. 4(A); for expression of collagen (Collagen 1 gene): FIG. 4(B). Type of test: cell-based, Homo sapiens. On the procedure: Dermal fibroblasts established from skin from the back of an adult were cultured in Dulbecco's Modified Eagle Medium supplemented with 10% FBS. Cells with a culture period of less than 1 month and Pdl<30 were used as normal fibroblasts (young fibroblasts). These cells were cultured for 3 months or more and cells which began to proliferate more slowly (doubling time less than 0.5/week and Pdl>50) were used as senescent cells. Normal fibroblasts were inoculated on the upper layer of a 6-well transwell system (Falcon; Franklin Lakes, N.J.) filled with Dulbecco's Modified Eagle Medium supplemented with 10% FBS until the density was 1250 cell/cm^2. Subconstructed senescent fibroblasts and normal fibroblasts were separately inoculated in two wells of the lower layer of the transwell system. The upper layer and the lower layer of the transwell system were combined and cultured for 2 days at 37° C. in a humidified atmosphere with 5% CO2, and the cells in the upper layer and the lower layer were recovered using Qiazole (Qiagen).
RNA was extracted from the recovered cell lysate using RNeasy Protect Kit (Qiagen) by following the instructions therefor, then Superscript VILO (Invitrogen) was used to reverse transcribe the RNA into cDNA by following the instructions. Using 28SrRNA as an internal standard, real time PCR was performed with LightCycler (commercially available) using the primer pairs for the following genes. The cycle threshold (Ct value) calculated by Lightcycler software ver. 3.5 was normalized for GAPDH mRNA of each sample.
The proteins of the candidate senescence factors (IGFBP7 and RSPO4) (purchased from Serotec, R&D SYSTEMS) were added to the culture medium for culturing the young fibroblasts at a concentration of 0 μg/ml and 10 μg/ml. After culturing for 2 days, the cells were then separately recovered using Qiazole (Qiagen). In the same way as disclosed in the section relating to quantitative RT-PCR, the expression levels of MMP1 and collagen were examined in the recovered cell lysate.

B1: IGFBP7: Homo sapiens insulin-like growth factor binding protein 7 protein, purchased (Serotec, R&D SYSTEMS), candidate senescence factor (protein, UniProt Q16270 27-282, looked up)
Insulin-like growth …: SSSDTCGPCEPASCPPLPPLGCLLGETRDACGCCPMCARGEGEPCGGGGAGRGYCAPGMECVKSRKRRKGKAGAAAGGPGVSGVCVCKSRYPVCGSDGTTYPSGCQLRAASQRAESRGEKAITQVSKGTCEQGPSIVTPPKDIWNVTGAQVYLSCEVIGIPTPVLIWNKVKRGHYGVQRTELLPGDRDNLAIQTRGGPEKHEVTGWVLVSPLSKEDAGEYECHASNSQGQASASAKITVVDALHEIPVKKGEGAEL
B1: the MMP1 expression entry is on record as “increased” and the “expression of collagen (Collagen 1 gene)” value is “reduced”.

B2: RSPO4: Homo sapiens R-spondin family, member 4 protein, purchased (Serotec, R&D SYSTEMS), candidate senescence factor (protein, UniProt Q2I0M5 20-234, looked up)
R-spondin-4: LNRRKKQVGTGLGGNCTGCIICSEENGCSTCQQRLFLFIRREGIRQYGKCLHDCPPGYFGIRGQEVNRCKKCGATCESCFSQDFCIRCKRQFYLYKGKCLPTCPPGTLAHQNTRECQGECELGPWGGWSPCTHNGKTCGSAWGLESRVREAGRAGHEEAATCQVLSESRKCPIQRPCPGERSPGQKKGRKDRRPRKDRKLDRRLDVRPRQPGLQP
For B2, the MMP1 expression result was “increased” and the “expression of collagen (Collagen 1 gene)” value is “reduced”.

For the origin of these results see patent US20200232972A1, “METHOD FOR SCREENING ANTI-AGING SUBSTANCES” (Shiseido Company, Ltd., priority 2017, published 2020).
